What all share (test): cryo-EM structure
In one assay the target is T1, Rpn5 (S. cerevisiae, UniProt Q12250 1-445).
T1 sequence (looked up): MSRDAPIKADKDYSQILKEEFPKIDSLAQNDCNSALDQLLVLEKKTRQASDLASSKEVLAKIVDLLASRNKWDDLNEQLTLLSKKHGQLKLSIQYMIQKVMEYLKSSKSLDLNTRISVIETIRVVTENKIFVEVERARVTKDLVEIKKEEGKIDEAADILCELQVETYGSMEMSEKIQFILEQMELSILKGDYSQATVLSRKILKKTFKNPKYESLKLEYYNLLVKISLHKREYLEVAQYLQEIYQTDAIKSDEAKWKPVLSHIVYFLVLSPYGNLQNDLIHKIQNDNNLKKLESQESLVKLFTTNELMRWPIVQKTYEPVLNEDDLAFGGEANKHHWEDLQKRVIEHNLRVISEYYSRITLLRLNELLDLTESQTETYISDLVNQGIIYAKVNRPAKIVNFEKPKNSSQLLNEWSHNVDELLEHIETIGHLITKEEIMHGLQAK

In a further assay the target is T2, Rpn7 (S. cerevisiae, UniProt Q06103 1-429).
T2 sequence (looked up): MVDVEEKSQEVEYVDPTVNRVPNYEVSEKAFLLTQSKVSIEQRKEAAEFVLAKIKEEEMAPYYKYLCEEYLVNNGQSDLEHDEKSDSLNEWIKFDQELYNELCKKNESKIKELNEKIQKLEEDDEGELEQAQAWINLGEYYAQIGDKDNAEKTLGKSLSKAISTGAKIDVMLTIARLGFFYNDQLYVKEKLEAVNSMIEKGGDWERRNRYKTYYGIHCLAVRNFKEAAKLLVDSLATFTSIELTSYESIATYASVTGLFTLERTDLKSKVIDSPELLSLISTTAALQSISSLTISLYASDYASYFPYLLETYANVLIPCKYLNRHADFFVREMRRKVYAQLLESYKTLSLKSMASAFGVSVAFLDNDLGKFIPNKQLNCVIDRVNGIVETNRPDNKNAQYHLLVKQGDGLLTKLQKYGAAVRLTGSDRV

For another assay, the target named is T3, Rpn6 (S. cerevisiae, UniProt Q12377 1-434).
T3 sequence (looked up): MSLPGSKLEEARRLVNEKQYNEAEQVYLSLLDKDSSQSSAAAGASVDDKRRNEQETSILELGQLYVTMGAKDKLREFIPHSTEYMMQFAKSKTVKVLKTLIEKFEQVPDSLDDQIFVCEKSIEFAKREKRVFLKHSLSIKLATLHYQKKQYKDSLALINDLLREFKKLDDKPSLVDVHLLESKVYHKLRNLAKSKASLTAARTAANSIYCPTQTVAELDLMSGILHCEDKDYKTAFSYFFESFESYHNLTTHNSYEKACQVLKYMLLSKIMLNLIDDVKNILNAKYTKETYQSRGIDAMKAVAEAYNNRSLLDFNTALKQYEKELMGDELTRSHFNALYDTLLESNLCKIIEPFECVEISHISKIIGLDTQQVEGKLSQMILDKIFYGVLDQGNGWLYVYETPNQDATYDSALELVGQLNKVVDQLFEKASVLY

The target of a further assay is T4, Rpt4 (S. cerevisiae, UniProt P53549 1-437).
T4 sequence (looked up): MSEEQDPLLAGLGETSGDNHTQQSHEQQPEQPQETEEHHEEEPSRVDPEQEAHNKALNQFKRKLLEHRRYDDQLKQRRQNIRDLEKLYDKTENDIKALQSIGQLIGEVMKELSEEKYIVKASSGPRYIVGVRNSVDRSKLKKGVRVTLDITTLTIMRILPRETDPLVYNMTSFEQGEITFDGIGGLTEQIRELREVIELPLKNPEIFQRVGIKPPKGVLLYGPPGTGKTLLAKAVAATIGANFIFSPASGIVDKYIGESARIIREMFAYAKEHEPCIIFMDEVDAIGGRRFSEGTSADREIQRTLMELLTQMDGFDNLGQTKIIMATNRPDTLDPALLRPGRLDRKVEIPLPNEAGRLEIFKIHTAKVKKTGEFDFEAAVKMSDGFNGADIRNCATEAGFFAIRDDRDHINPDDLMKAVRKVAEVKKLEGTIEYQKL

Another assay has as its target T5, Rpt5 (S. cerevisiae, UniProt P33297 1-434).
T5 sequence (looked up): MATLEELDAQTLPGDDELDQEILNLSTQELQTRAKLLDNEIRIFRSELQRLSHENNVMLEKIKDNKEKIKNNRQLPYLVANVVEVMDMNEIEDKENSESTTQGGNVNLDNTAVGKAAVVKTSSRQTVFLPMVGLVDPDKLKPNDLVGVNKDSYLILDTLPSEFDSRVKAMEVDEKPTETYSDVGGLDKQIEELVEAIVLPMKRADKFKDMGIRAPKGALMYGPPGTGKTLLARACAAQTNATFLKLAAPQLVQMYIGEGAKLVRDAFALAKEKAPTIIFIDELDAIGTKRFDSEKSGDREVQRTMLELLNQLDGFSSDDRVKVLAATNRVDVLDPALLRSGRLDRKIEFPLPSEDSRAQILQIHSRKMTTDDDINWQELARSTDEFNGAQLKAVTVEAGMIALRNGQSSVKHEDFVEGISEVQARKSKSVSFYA

B1: Rpt3 (natural protein, S. cerevisiae, UniProt P33298 1-428, looked up)
chain: MEELGIVTPVEKAVEEKPAVKSYASLLAQLNGTVNNNSALSNVNSDIYFKLKKLEKEYELLTLQEDYIKDEQRHLKRELKRAQEEVKRIQSVPLVIGQFLEPIDQNTGIVSSTTGMSYVVRILSTLDRELLKPSMSVALHRHSNALVDILPPDSDSSISVMGENEKPDVTYADVGGLDMQKQEIREAVELPLVQADLYEQIGIDPPRGVLLYGPPGTGKTMLVKAVANSTKAAFIRVNGSEFVHKYLGEGPRMVRDVFRLARENAPSIIFIDEVDSIATKRFDAQTGSDREVQRILIELLTQMDGFDQSTNVKVIMATNRADTLDPALLRPGRLDRKIEFPSLRDRRERRLIFGTIASKMSLAPEADLDSLIIRNDSLSGAVIAAIMQEAGLRAVRKNRYVILQSDLEEAYATQVKTDNTVDKFDFYK
Regarding B1, the binding result with Rpn5, with Rpn7 and in the assay with Rpn6 was “binds” each time.

B2: Rpt6 (natural protein, S. cerevisiae, UniProt Q01939 1-405, looked up)
chain: MTAAVTSSNIVLETHESGIKPYFEQKIQETELKIRSKTENVRRLEAQRNALNDKVRFIKDELRLLQEPGSYVGEVIKIVSDKKVLVKVQPEGKYIVDVAKDINVKDLKASQRVCLRSDSYMLHKVLENKADPLVSLMMVEKVPDSTYDMVGGLTKQIKEIKEVIELPVKHPELFESLGIAQPKGVILYGPPGTGKTLLARAVAHHTDCKFIRVSGAELVQKYIGEGSRMVRELFVMAREHAPSIIFMDEIDSIGSTRVEGSGGGDSEVQRTMLELLNQLDGFETSKNIKIIMATNRLDILDPALLRPGRIDRKIEFPPPSVAARAEILRIHSRKMNLTRGINLRKVAEKMNGCSGADVKGVCTEAGMYALRERRIHVTQEDFELAVGKVMNKNQETAISVAKLFK
Turning to B2, the binding result with Rpn7 is on record as “binds”.

B3: Rpn10 (natural protein, S. cerevisiae, UniProt P38886 1-268, looked up)
chain: MVLEATVLVIDNSEYSRNGDFPRTRFEAQIDSVEFIFQAKRNSNPENTVGLISGAGANPRVLSTFTAEFGKILAGLHDTQIEGKLHMATALQIAQLTLKHRQNKVQHQRIVAFVCSPISDSRDELIRLAKTLKKNNVAVDIINFGEIEQNTELLDEFIAAVNNPQEETSHLLTVTPGPRLLYENIASSPIILEEGSSGMGAFGGSGGDSDANGTFMDFGVDPSMDPELAMALRLSMEEEQQRQERLRQQQQQQDQPEQSEQPEQHQDK
B3: the binding result with Rpt4 and in the assay with Rpt5 was “binds” in each case.

(Values after publication PMC3712289 (Nature structural & molecular biology, 2013).)
